Results taken from patent US20090311257A1 (XOMA TECHNOLOGY, published 2009).
Substitutions are numbered along the chain they refer to. Where no end group is shown, it is not given here.

T1: CCK2R on the CCK2R overexpressing cell line AGS-TR (UniProt P32239 1-447, limits assumed)
T1 sequence (looked up): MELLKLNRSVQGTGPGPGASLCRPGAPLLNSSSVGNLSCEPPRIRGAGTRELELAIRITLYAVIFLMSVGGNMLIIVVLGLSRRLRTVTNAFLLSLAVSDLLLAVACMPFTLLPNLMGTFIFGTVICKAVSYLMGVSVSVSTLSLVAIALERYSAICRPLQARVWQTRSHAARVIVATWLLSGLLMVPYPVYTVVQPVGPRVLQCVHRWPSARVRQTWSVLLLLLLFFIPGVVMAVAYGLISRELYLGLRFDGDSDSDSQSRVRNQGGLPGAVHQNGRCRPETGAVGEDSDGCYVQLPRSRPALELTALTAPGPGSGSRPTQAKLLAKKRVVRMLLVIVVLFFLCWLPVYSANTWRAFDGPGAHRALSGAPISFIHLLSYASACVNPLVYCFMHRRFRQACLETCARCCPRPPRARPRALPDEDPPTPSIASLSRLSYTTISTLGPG

T2: biotinylated 10 amino acid peptide from the N terminal portion of Gastrin 17 (human, UniProt P01350 76-85, limits assumed, ends and bridges not checked)
T2 construct: domain: 10 amino acid peptide from the N terminal portion of Gastrin 17; Panning target; also called biotinylated peptide; biotinylated peptides
T2 peptide (looked up): QGPWLEEEEE-biotin

B1: XPA065 (phage display-derived antibody fragment) (antibody, V domains shown)
VH: EVQLVQSGAEVKKPGSSVTVSCKASGGTFDKYAIGWVRQAPGQGLEWMGRIIPTLDLANSAQKFQDRVTITADKFTTTVYMELTNLRPEDTAMYYCTRDPLYNWSGSYWGRGTMVTVSS
VL: QAVLTQPSSLSASPGTSASLTCTLRSGINVGSYRIYWYQQRPGSPPQYLLRYKSDSDKQQGSGVPSRFSGSKDASANAGVLFISGLQSDDEADYYCMIWHNSAWVFGGGTKLTVL
B2: human gastrin (h-G17) (ligand, UniProt P01350 76-92, looked up)
peptide: QGPWLEEEEEAYGWMDF
B3: XPA061 (phage display-derived antibody fragment) (antibody, V domains shown)
VH: QVQLVQSGAEVKKPGSSVKVSCKISGGTFSSHAIGWVRQAPGQGLEWIGRIIPSLDLDNSAPKFQDRVTITADKFTNTAYMELRNLRPEDTAFYYCTGDPLYNWTGAHWGRGTMVTVSS
VL: QAVLTQPSSLSASPGASASLTCTLRSDINVGTYRIYWYQQKSGSPPQYLLRYRSDSDKQQGSGVPSRFSGSKDASANAGILLISGLQSEDEADYYCMIWHSSAWVFGGGTKVTVL
B4: a monoclonal antibody with affinity of about 10^-9 M (anti-gastrin, not named in the sentence) (antibody, V domains shown)
VH: B1 VH
VL: B3 VL with D27G, S42P, R53K, V112L
B5: XPA067 reformatted whole human IgG (antibody, V domains shown)
VH: B1 VH
VL: B3 VL with D27G, S42P, R53K, V112L
notes: also called parent antibody XPA067; parental a-gastrin mAb
B6: XPA061 reformatted whole human IgG (antibody, V domains shown)
VH: B3 VH
VL: B3 VL
B7: XPA081 (phage display-derived antibody fragment) (antibody, V domains shown)
VH: B1 VH with T54S, A58D, E82K, T84S, M93I, N103Q, R111K, M114L
VL: B3 VL with S42P, R53K, E89G, E91G, V112L
B8: XPA063 (phage display-derived antibody fragment) (antibody, V domains shown)
VH: B1 VH with T54S, A58D, E82K, T84S
VL: B3 VL with D27G, S42P, R53K, V112L
B9: XPA067 (parental antibody fragment) (antibody, V domains shown)
VH: B1 VH
VL: B3 VL with D27G, S42P, R53K, V112L
notes: also called parental (XPA067)

What was measured:
human gastrin (h-G17) [1] = biological target: B2; test: cell-based or functional assay
[2] = biological target: T1, CCK2R on the CCK2R overexpressing cell …; test: cell-based or functional assay
human gastrin (h-G17) [3] = biological target: B2; test: summary sentence of the filing's own data; method not given; antibody not named
human gastrin (h-G17) [4] = biological target: B2; test: cell-based or functional assay
[5] = biological target: T2, biotinylated 10 amino acid peptide from …; test: SPR, measured as described previously (BIACORE, biotinylated peptide on streptavidin chip); reformatted IgG
Experimental: (§1) Affinities of the parental (XPA067) and matured antibody fragments were determined by surface plasmon resonance using a BIACORE® 2000. Affinity constants were calculated from the kinetic rate constants for antibody binding to biotinylated peptide immobilized on a Streptavidin sensor chip.
(§2) A very low density of peptide was immobilized in order to avoid bivalent binding by the antibodies to the sensor chip. Antibodies were tested in triplicate at six concentrations of three-fold serial dilutions. Data were analyzed using BiaEval Software.
Antibody affinity was measured as described previously.

human gastrin (h-G17) [6] = biological target: B2; test: KD measurement of reformatted IgG; method and antigen form not stated in the example; reformatted IgG, Table 2 lead selection
human gastrin (h-G17) [7] = biological target: B2; test: KD measurement of reformatted IgG; method and antigen form not stated in the example
[8] = biological target: T2, biotinylated 10 amino acid peptide from …; test: SPR (BIACORE 2000), antibody over low-density biotinylated peptide on streptavidin chip; from kinetic rate constants; parental fragment, Table 3 comparator to the matured fragments
Experimental: as §1, §2

Binder | Ca flux neutralization at 2x molar excess (human gastrin (h-G17) [1]) [%] | Ca flux neutralization at roughly 100 fold molar excess over gastrin (1 nM) (human gastrin (h-G17) [1]) [%] | other results
B1 | < 20 | ~80 | –
B2 | – | – | calcium flux EC50 (AGS-TR cells) [2]: 1 nM
B3 | ~70 | ~80 | –
B4 | – | – | Kd (human gastrin (h-G17) [3]): ~1 nM
B5 | – | – | Ca Flux IC50 (human gastrin (h-G17) [4]): 0.76 nM; pERK IC50 (nM) (human gastrin (h-G17) [4]): 0.56 nM; Kd [5]: ~5 nM; Kd (human gastrin (h-G17) [6]): 3.9 nM
B6 | – | – | Ca Flux IC50 (human gastrin (h-G17) [4]): 1.34 nM; pERK IC50 (nM) (human gastrin (h-G17) [4]): 0.42 nM; Kd (human gastrin (h-G17) [7]): 9.9 nM
B7 | < 20 | ~80 | –
B8 | < 20 | > 70 | –
B9 | < 20 | ~80 | Kd [8]: ~5 nM
